Where a chain is given by its changes, count along the chain named.
T1: ALPL (Homo sapiens, UniProt P05186)
T1 construct: expressed in transfected cells; host or cells: HEK 293T
T1 sequence (P05186 whole entry, looked up): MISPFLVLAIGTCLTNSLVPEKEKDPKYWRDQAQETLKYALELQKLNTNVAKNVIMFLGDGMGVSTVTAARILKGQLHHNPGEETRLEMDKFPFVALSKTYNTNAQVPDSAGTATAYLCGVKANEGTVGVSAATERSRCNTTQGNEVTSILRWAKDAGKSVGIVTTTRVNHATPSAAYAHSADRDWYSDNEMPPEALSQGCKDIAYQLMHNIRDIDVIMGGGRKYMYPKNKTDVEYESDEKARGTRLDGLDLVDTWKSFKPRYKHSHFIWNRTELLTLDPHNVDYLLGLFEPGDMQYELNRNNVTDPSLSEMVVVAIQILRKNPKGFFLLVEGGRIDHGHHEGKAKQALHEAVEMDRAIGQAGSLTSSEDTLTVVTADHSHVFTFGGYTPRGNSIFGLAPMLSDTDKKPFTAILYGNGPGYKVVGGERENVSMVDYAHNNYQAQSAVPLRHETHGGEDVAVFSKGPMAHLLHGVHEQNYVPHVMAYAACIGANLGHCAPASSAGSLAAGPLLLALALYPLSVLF

T2: AAVR (Homo sapiens, UniProt Q8IZA0)
T2 construct: expressed in transfected cells; host or cells: HEK 293T
T2 sequence (Q8IZA0 whole entry, looked up): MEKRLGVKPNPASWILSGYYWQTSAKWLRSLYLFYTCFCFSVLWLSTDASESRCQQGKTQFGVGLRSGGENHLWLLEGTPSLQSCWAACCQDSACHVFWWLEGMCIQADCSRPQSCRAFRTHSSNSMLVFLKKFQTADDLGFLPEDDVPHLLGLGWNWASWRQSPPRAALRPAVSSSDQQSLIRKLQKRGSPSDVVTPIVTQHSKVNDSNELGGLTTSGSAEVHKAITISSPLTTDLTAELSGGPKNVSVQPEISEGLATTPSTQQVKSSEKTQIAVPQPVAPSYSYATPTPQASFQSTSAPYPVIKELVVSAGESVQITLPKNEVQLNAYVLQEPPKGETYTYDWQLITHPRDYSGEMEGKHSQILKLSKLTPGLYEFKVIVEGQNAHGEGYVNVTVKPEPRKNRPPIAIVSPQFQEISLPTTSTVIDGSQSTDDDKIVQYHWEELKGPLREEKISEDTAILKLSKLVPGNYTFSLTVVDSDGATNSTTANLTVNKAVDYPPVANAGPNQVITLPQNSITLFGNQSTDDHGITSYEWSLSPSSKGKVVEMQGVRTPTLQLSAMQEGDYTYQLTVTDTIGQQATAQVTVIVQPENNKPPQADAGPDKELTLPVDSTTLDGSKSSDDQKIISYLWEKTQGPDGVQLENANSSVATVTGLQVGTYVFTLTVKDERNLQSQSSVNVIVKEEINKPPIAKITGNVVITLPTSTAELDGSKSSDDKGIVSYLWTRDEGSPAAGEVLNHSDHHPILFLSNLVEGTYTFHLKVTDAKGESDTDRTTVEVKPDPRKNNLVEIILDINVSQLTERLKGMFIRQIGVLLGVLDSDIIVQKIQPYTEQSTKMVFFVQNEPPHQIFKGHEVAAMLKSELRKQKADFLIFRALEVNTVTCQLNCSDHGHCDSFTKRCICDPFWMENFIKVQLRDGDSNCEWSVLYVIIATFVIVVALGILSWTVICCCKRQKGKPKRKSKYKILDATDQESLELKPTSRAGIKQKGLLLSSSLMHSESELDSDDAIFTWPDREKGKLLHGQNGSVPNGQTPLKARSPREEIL

B1: TTM-006: AAV9 capsid variant, full length capsid sequence of Table 4 (protein)
chain: MAADGYLPDWLEDNLSEGIREWWALKPGAPQPKANQQHQDNARGLVLPGYKYLGPGNGLDKGEPVNAADAAALEHDKAYDQQLKAGDNPYLKYNHADAEFQERLKEDTSFGGNLGRAVFQAKKRLLEPLGLVEEAAKTAPGKKRPVEQSPQEPDSSAGIGKSGAQPAKKRLNFGQTGDTESVPDPQPIGEPPAAPSGVGSLTMASGGGAPVADNNEGADGVGSSSGNWHCDSQWLGDRVITTSTRTWALPTYNNHLYKQISNSTSGGSSNDNAYFGYSTPWGYFDFNRFHCHFSPRDWQRLINNNWGFRPKRLNFKLFNIQVKEVTDNNGVKTIANNLTSTVQVFTDSDYQLPYVLGSAHEGCLPPFPADVFMIPQYGYLTLNDGSQAVGRSSFYCLEYFPSQMLRTGNNFQFSYEFENVPFHSSYAHSQSLDRLMNPLIDQYLYYLSKTEKMSGSPHSKAQNQQTLKFSVAGPSNMAVQGRNYIPGPSYRQQRVSTTVTQNNNSEFAWPGASSWALNGRNSLMNPGPAMASHKEGEDRFFPLSGSLIFGKQGTGRDNVDADKVMITNEEEIKTTNPVATESYGQVATNHQSAQAQAQTGWVQNQGILPGMVWQDRDVYLQGPIWAKIPHTDGNFHPSPLMGGFGMKHPPPQILIKNTPVPADPPTAFNKDKLNSFITQYSTGQVSVEIEWELQKENSKRWNPEIQYTSNYYKSNNVEFAVNTEGVYSEPRPIGTRYLTRNL
B2: TTM-019: AAV9 capsid variant, full length capsid sequence of Table 4 (protein)
chain: B1 chain with E451V, K452N, M453G, S454H, G455D
B3: TTM-018: AAV9 capsid variant, full length capsid sequence of Table 4 (protein)
chain: B1 chain with E451I, K452N, M453G, S454H, G455D, Q464L

tested on: HEK 293T cells transfected with pCMV6 negative control; format: cell-based; conditions: Table 28; pCMV6 transfected cells (negative control, reference)
Method: (§1) Briefly, a transduction assay was performed in that HEK 293T cells were transfected via calcium phosphate transfection with a plasmid expressing ALPL, an AAVR positive control, or a pCMV6 negative control (250 ng or 500 ng of plasmid). AAVR is a universal AAV entry factor involved in AAV transduction. […] At 24-hours post-transduction, GFP expression and luciferase activity were measured to quantify and observe AAV cellular transduction. […] The TTM-002, TTM-006, TTM-018, and TTM-019 capsid variants all comprised the SPH motif immediately subsequent to position 455, numbered relative to SEQ ID NO: 138 and a positive residue in one of the next three residues subsequent to the SPH motif.
Three isoforms of ALPL exist, isoform 1 (Alkaline phosphatase, placental-like 2 (ALPPL2), NM_031313, which is incorporated by reference herein), isoform 2 (alkaline phosphatase, placental (ALPP), NM_001632, which is incorporated by reference herein), and isoform 3 (alkaline phosphatase, intestinal (ALPLI), NM_001631, which is incorporated by reference herein), that can also be expressed on cell surfaces via a GPI-anchor. […] The transduction assay described above was repeated with the three isoforms. HEK 293T cells were transfected via calcium phosphate transfection with a plasmid expressing ALPL, isoform 1 of ALPL, isoform 2 of ALPL, isoform 3 of ALPL, an AAVR positive control, or a pCMV6 negative control. At 24 hours post-transfection, the HEK 293T cells expressing the ALPL receptor were transduced with an AAV particle comprising the TTM-001 capsid variant or the TTM-002 capsid variant, expressing a Luc2-GFP payload. At 24-hours post-transduction, luciferase activity (RLU) was measured to quantify AAV cellular transduction.
To determine if deletion of the endoplasmic reticulum (ER) localization signal of ALPL affected transduction of the TTM-001 and TTM-002 capsid variants, HEK 293T cells were transfected via calcium phosphate transfection with a plasmid expressing ALPL, ALP with a deletion of the ER localization signal (ALPL transcript variant 2 that lacks the ER signal (NM_001127501, which is incorporated by reference herein)), or a pCMV6 negative control. At 24 hours post-transfection, the HEK 293T cells expressing the ALPL receptor were transduced with an AAV particle comprising the TTM-001 capsid variant, the TTM-002 capsid variant, or an AAV9 capsid control, expressing a GFP payload. At 24-hours post-transduction, luciferase activity (RLU) was measured to quantify AAV cellular transduction. Data was normalized to fold change in luciferase activity (RLU) compared to the pCMV6 control.
(§2) To determine if the TTM-001 and TTM-002 capsid variants could bind to both the human ALPL protein (NM_000478.6, which is incorporated by reference herein) and the mouse ALPL ortholog (NM_001287172.1, which is incorporated by reference herein), HEK 293T cells were transfected via calcium phosphate transfection with a plasmid expressing human ALPL, the murine ortholog of ALPL, or a pCMV6 negative control. At 24 hours post-transfection, the HEK 293T cells expressing the ALPL receptor were transduced with an AAV particle comprising the TTM-001 capsid variant, the TTM-002 capsid variant, or an AAV9 control capsid protein, expressing a Luc2-GFP payload. At 24-hours post-transduction, luciferase activity (RLU) was measured to quantify AAV cellular transduction.
AAV entry factor involved in AAV transduction), or a pCMV6 negative control.

Molecule | Luciferase Activity (fold change relative to pCMV6 transfected cells)
B1 | 1 fold
B2 | 1 fold
B3 | 1 fold

target: T1, ALPL; format: cell-based; conditions: Table 28; ALPL transfected cells
Method: as §1, §2

Molecule | Luciferase Activity (fold change relative to pCMV6 transfected cells)
B1 | 91 fold
B2 | 88 fold
B3 | 90 fold

same assay, conditions: relative to pCMV6 transfected cells, 24 hours post-transduction

Molecule | fold increase in transduction by luciferase assay in cells expressing ALPL
B1 | an increase in transduction
B2 | an increase in transduction
B3 | an increase in transduction

target: T2, AAVR; format: cell-based; conditions: Table 28; AAVR transfected cells
Method: as §1

Molecule | Luciferase Activity (fold change relative to pCMV6 transfected cells)
B1 | 25 fold
B2 | 28 fold
B3 | 25 fold

Source: patent US20260250318A1, “COMPOSITIONS AND METHODS FOR CROSSING THE BLOOD BRAIN BARRIER” (VOYAGER THERAPEUTICS, INC., priority 2022, published 2026)
